Laboratory results: article PMC6009700
Read-outs that look alike come from different tables or passages of the source.

T1: TubR (Clostridium botulinum prophage c-st, UniProt Q331T6 1-81)
T1 sequence: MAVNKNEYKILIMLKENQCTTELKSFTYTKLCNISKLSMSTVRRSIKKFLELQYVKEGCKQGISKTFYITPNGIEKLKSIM

B1: SF3b (dsDNA)
DNA 1: TGAACATATAGTGAACATAATACAACTAGTACAAGAATGTAGTTTGACTAT
DNA 2: ATAGTCAAACTACATTCTTGTACTAGTTGTATTATGTTCACTATATGTTCA
B2: SF2 (dsDNA)
DNA 1: AGAATATACTTTGAATATAATTAGACTTAAACAAGATTACTTTTAGACTATAGTATAAATATAATTAGAAAATAATTTGAATAATTTATGAAAATAAGTACACATTTTCTAAGGAATATAGTATAATATAGTAAAGAAAGA
DNA 2: TCTTTCTTTACTATATTATACTATATTCCTTAGAAAATGTGTACTTATTTTCATAAATTATTCAAATTATTTTCTAATTATATTTATACTATAGTCTAAAAGTAATCTTGTTTAAGTCTAATTATATTCAAAGTATATTCT
B3: Shuffle DNA (dsDNA)
DNA 1: AATCGTAAAATATTACAATATAAGGTAACAAGATATTCCTTTTTGGAGCAT
DNA 2: ATGCTCCAAAAAGGAATATCTTGTTACCTTATATTGTAATATTTTACGATT
B4: CP1 (dsDNA)
DNA 1: TATAGTAAAGAAAGAAATAAACATGATATGAACATATATTGACTACAGTTTGACATAGTTTTGACTATGATATGAACAAAATAAGAATGTATTA
DNA 2: TAATACATTCTTATTTTGTTCATATCATAGTCAAAACTATGTCAAACTGTAGTCAATATATGTTCATATCATGTTTATTTCTTTCTTTACTATA
B5: SF1 (dsDNA)
DNA 1: TAAGGAATATAGTATAATATAGTAAAGAAAGAAATAAACATGATATGAACATATATTGACTACAGTTTGACATAGTTTTGACTATGATATGAACAAAATAAGAATGTATTATGAATATTTTCTTACATTACTGCGACTACTATCAG
DNA 2: CTGATAGTAGTCGCAGTAATGTAAGAAAATATTCATAATACATTCTTATTTTGTTCATATCATAGTCAAAACTATGTCAAACTGTAGTCAATATATGTTCATATCATGTTTATTTCTTTCTTTACTATATTATACTATATTCCTTA
B6: SF1b (dsDNA)
DNA 1: AAATAAACATGATATGAACATATATTGACTACAGTTTGACATAGTTTTGAC
DNA 2: GTCAAAACTATGTCAAACTGTAGTCAATATATGTTCATATCATGTTTATTT
B7: SF3 (dsDNA)
DNA 1: GTTAATTGTAGCGTTAAGTGAGACATAGAATTGAACATATAGTGAACATAATACAACTAGTACAAGAATGTAGTTTGACTATAATTTGAACATATTTAGAATATACTTTGAATATAATTAGACTTAAACAAG
DNA 2: CTTGTTTAAGTCTAATTATATTCAAAGTATATTCTAAATATGTTCAAATTATAGTCAAACTACATTCTTGTACTAGTTGTATTATGTTCACTATATGTTCAATTCTATGTCTCACTTAACGCTACAATTAAC

Assays:
TubR [1] = target: T1, TubR; test: fluorescence anisotropy
TubR [2] = target: T1, TubR; test: EMSA
TubR [3] = target: T1, TubR; test: EMSA; remark: listed apart in the source
TubR [4] = target: T1, TubR; test: fluorescence anisotropy; remark: listed apart in the source

Binder	binding result (TubR [2])	also measured
B1	–	apparent K (half saturation) (TubR [1]): 138 ± 7.7 nM
B2	binds	–
B3	no binding	–
B4	–	binding result (TubR [3]): binds
B5	binds	–
B6	–	apparent K (half saturation) (TubR [4]): 184 ± 4.04 nM
B7	binds	–
